According to the supplement of paper PMC10567573:

B1: CDC25B (parent)
chain: FVDILESDLKDDDAVPPGMESLIS
B2: PTPN9 (parent)
chain: NKWTVQYNVSPLSWNVAVKFLMAR

Variants of: B1
Test: protein stability index of a GFP-peptide fusion (GPS, HEK-293T) (PSI 1-6); higher = more stable
Conditions: c terminus: a fixed tail appended
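Further: lentivirally expressed fusions sorted by FACS into six bins by GFP to DsRed ratio, PSI derived from sequencing read proportions per bin multiplied by bin number.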

Row | Variant | protein stability index
1 | GVDILESDLKDDDAVPPGMESLIS | 5.23
2 | MVDILESDLKDDDAVPPGMESLIS | 4.59
3 | HVDILESDLKDDDAVPPGMESLIS | 5.4
4 | IVDILESDLKDDDAVPPGMESLIS | 4.33
5 | LVDILESDLKDDDAVPPGMESLIS | 4.81
6 | KVDILESDLKDDDAVPPGMESLIS | 5.17
7 | CVDILESDLKDDDAVPPGMESLIS | 4.49
8 | EVDILESDLKDDDAVPPGMESLIS | 5.37
9 | DVDILESDLKDDDAVPPGMESLIS | 5.24
10 | AVDILESDLKDDDAVPPGMESLIS | 5

Variants of: B2
Test: as above
Conditions: c terminus: a fixed tail appended

Row | Variant | protein stability index
11 | NKWTVQYNVSPLSWNVAVKFLMHR | 3.31
12 | NKWTVQYNVSPLSWNVAVKFLMRR | 2.58
13 | NKWTVQYNVSPLSWNVAVKFLMVR | 2.43
14 | NKWTVQYNVSPLSWNVAVKFLMSR | 2.48
15 | NKWTVQYNVSPLSWNVAVKFLMQR | 2.55
16 | NKWTVQYNVSPLSWNVAVKFLMDR | 2.21
17 | NKWTVQYNVSPLSWNVAVKFLMNR | 2.54
18 | NKWTVQYNVSPLSWNVAVKFLMYR | 2.98
19 | NKWTVQYNVSPLSWNVAVKFLMIR | 2.44
20 | NKWTVQYNVSPLSWNVAVKFLMLR | 4.22
21 | NKWTVQYNVSPLSWNVAVKFLMMR | 3.33
22 | NKWTVQYNVSPLSWNVAVKFLMFR | 2.72
23 | NKWTVQYNVSPLSWNVAVKFLMCR | 1.95
24 | NKWTVQYNVSPLSWNVAVKFLMPR | 2.3
25 | NKWTVQYNVSPLSWNQAVKFLMAR | 1.52
26 | NKWTVQYNVSPLSWNYAVKFLMAR | 2.6
27 | NKWTVQYNVSPLSWNSAVKFLMAR | 1.87
28 | NKWTVQYNVSPLSWNEAVKFLMAR | 2.65
29 | NKWTVQYNVSPLSWNNAVKFLMAR | 1.51
30 | NKWTVQYNVSPLSWNGAVKFLMAR | 2.55
31 | NKWTVQYNVSPLSWNCAVKFLMAR | 3.82

Row | Variant | protein stability index
32 | NKWTVQYNVSPLSWNPAVKFLMAR | 1.99
33 | NKWTVQYNVSPLSWNKAVKFLMAR | 3.3
34 | NKWTVQYNVSPLSWNHAVKFLMAR | 2.69
35 | NKWTVQYNVSPLSWNAAVKFLMAR | 2.35
36 | NKWTVQYNVSPLSWNMAVKFLMAR | 3.58
37 | NKWTVQYNVSPLSWNLAVKFLMAR | 2.38
38 | NKWTVQYNVSPLSWNFAVKFLMAR | 3.88
39 | NKWTVQYNVSPLSWNRAVKFLMAR | 3.68
40 | NKWTVQYNVSPLSWNDAVKFLMAR | 1.93
41 | NKWTVQYNVSPLSWFVAVKFLMAR | 2.02
42 | NKWTVQYNVSPLSWPVAVKFLMAR | 2.39
43 | NKWTVQYNVSPLSWAVAVKFLMAR | 3.46
44 | NKWTVQYNVSPLSWTVAVKFLMAR | 2.89
45 | NKWTVQYNVSPLSWKVAVKFLMAR | 4.23
46 | NKWTVQYNVSPLSWLVAVKFLMAR | 1.92
47 | NKWTVQYNVSPLSWIVAVKFLMAR | 3.96
48 | NKWTVQYNVSPLSWEVAVKFLMAR | 3.45
49 | NKWTVQYNVSPLSWYVAVKFLMAR | 1.9
50 | NKWTVQYNVSPLSWMVAVKFLMAR | 2.53
51 | NKWTVQYNVSPLSWWVAVKFLMAR | 2.27
52 | NKWTVQYNVSPLYWNVAVKFLMAR | 2.32

Row | Variant | protein stability index
53 | NKWTVQYNVSPLVWNVAVKFLMAR | 2.88
54 | NKWTVQYNVSPLGWNVAVKFLMAR | 2.81
55 | NKWTVQYNVSPLDWNVAVKFLMAR | 2.74
56 | NKWTVQYNVSPLRWNVAVKFLMAR | 2.34
57 | NKWTVQYNVSPLKWNVAVKFLMAR | 2.74
58 | NKWTVQYNVSPLEWNVAVKFLMAR | 1.69
59 | NKWTVQYNVSPLNWNVAVKFLMAR | 3.31
60 | NKWTVQYNVSPLPWNVAVKFLMAR | 2.31
61 | NKWTVQYNVSPLHWNVAVKFLMAR | 2.51
62 | NKWTVQYNVSPLMWNVAVKFLMAR | 3.55
63 | NKWTVQYNVSPLIWNVAVKFLMAR | 1.99
64 | NKWTVQYNVSPLQWNVAVKFLMAR | 2.02
65 | NKWTVQYNVSPLWWNVAVKFLMAR | 2.65
66 | NKWTVQYNVSPLSWNVIVKFLMAR | 3.65
67 | NKWTVQYNVSPLSWNVRVKFLMAR | 1.47
68 | NKWTVQYNVSPLSWNVQVKFLMAR | 3.33
69 | NKWTVQYNVSPLSWNVNVKFLMAR | 1.22
70 | NKWTVQYNVSPLSWNVDVKFLMAR | 1.78
71 | NKWTVQYNVSPLSWNVFVKFLMAR | 1.58
72 | NKWTVQYNVSPLSWNVTVKFLMAR | 2.28
73 | NKWTVQYNVSPLSWNVHVKFLMAR | 2.23

Row | Variant | protein stability index
74 | NKWTVQYNVSPLSWNVMVKFLMAR | 2.92
75 | NKWTVQYNVSPLSWNVKVKFLMAR | 2.28
76 | NKWTVQYNVSPLSWNVPVKFLMAR | 2.37
77 | NKWTVQYNVSPLSWNVAVKFLMAF | 1.41
78 | NKWTVQYNVSPLSWNVAVKFLMAD | 2.41
79 | NKWTVQYNVSPLSWNVAVKFLMAT | 2.27
80 | NKWTVQYNVSPLSWNVAVKFLMAQ | 2.94
81 | NKWTVQYNVSPLSWNVAVKFLMAC | 2.63
82 | NKWTVQYNVSPLSWNVAVKFLMAK | 2.18
83 | NKWTVQYNVSPLSWNVAVKFLMAY | 2.66
84 | NKWTVQYNVSPLSWNVAVKFLMAG | 2.72
85 | NKWTVQYNVSPLSWNVAVKFLMAS | 1.83
86 | NKWTVQYNVSPLSWNVAVKFLMAL | 1.53
87 | NKWTVQYNVSPLSWNVAVKFLMAN | 3.31
88 | NKWTVQYNVSPLSWNVAVKFLMAW | 3.09
89 | NKWTVQYNVSPLSWNVAVKFLMAV | 2.97
90 | NKWTVQYNVSPLSWNVAVKFLMAA | 3.97
91 | NKWTVQYNVSPLSWNVAVKFLMAH | 2.82
92 | NKWTVQYNVSPLSWNVAVKFLMAM | 2.65
93 | NKWTVQYNVSPLSWNVAVKFLMAP | 1.23
94 | NKWTVQYNVSPLSWNVAVKKLMAR | 1.4
